{
  "source": "paper PMC7835374",
  "about": "(2021)",
  "binders": {"B1": {"name": "3I14^D93N IgG1 (antibody, V domains shown)", "VH": "QVQLLESGGGVVQPGRSLRLSCAASGFTFSNYGMHWVRQAPGKGLEWVAIISFDGSKKYYANSVKGRSTISRDNSKNTLSLQMNSLGPEDTALYYCAKLPSPYYFDSRFVWVAASAFHFWGQGILVTVSS", "VL": "LTQPPSASGTPGQRVTISCSGSSSNIGGNTVHWFQQLPGTAPKLLIYTNSLRPSGVPDRFSGSKSGTSASLAISGLQSEDEADYYCAAWDNSLNGQVFGGGTKLTVL"}},
  "target": "recombinant full-length hemagglutinin H6 (A/Taiwan/2/2013) (influenza A virus H6N1 (A/Taiwan/2/2013))",
  "experiment": "BLI",
  "data": [
    {"binder": "B1", "values": [
      {"measurement": "Kd", "value": 0.4, "unit": "nM"}
    ]}
  ]
}
